B1: Hammerhead Ribozyme (parent)
chain: ACCGGAUGUGCUUUCCGGUCUGAUGAGUCCGUGAGGACGAAACAG

Variants of: B1
Assay: self-cleavage, relative activity (ratio to wild type); higher = more cleavage; co-transcriptional

Variant | self-cleavage
ACCGGAUGUGCUUUCCGGUCUGAUGAUUCCGUGAGGACGAAACAA [G27U G45A] | 0.363
ACCGGAUGUGCUUCCCGGUCUGAUGAGUCGGUGAGGACGAAACAG [U14C C30G] | 0.65
ACCGGAUGUGCUUUCCGGCCUGAUGAGUCCGUAAGGACGAAACAG [U19C G33A] | 0.579
ACCGGAUCUGCUUUCCGGUCGGAUGAGUCCGUGAGGACGAAACAG [G8C U21G] | 0.432
ACCGUAUGUGCUUUCCGGUCUGACGAGUCCGUGAGGACGAAACAG [G5U U24C] | 0.922
ACCGGAUGUGCUUUCCGGUCUGAUGAGUCGGUGAGGACGACACAG [C30G A41C] | 0.368
ACCGGAUGUGCUUUCGAGUCUGAUGAGUCCGUGAGGACGAAACAG [C16G G17A] | 0.532
ACCGGGUGUGCUUUCCGGUCUGUUGAGUCCGUGAGGACGAAACAG [A6G A23U] | 0.274
ACCGGAUGUGCUUUCCGGUCUGAUGAGUCCGCUAGGACGAAACAG [U32C G33U] | 1.37
ACCGGAUGUGCUUUCCGAUUUGAUGAGUCCGUGAGGACGAAACAG [G18A C20U] | 0.312
ACCGGUUGUGCUUUCCGGUCUGAUGAGUCCGUGAGGACGAAGCAG [A6U A42G] | 0.307
ACCGGAUGUGCUUUCCGGUCUGAUGAGUCCGUGCGGAAGAAACAG [A34C C38A] | 0.472
ACCGGAUCGGCUUUCCGGUCUGAUGAGUCCGUGAGGACGAAACAG [G8C U9G] | 0.771
ACCGGAUCCGCUUUCCGGUCUGAUGAGUCCGUGAGGACGAAACAG [G8C U9C] | 1.05
UCCGGAUGUGCUUUCCGGUCUGAAGAGUCCGUGAGGACGAAACAG [A1U U24A] | 1.04
AGCGGAUCUGCUUUCCGGUCUGAUGAGUCCGUGAGGACGAAACAG [C2G G8C] | 0.302
AGCGGAUGUGCUUUCCGGUCUGAUGAGUCCGCGAGGACGAAACAG [C2G U32C] | 0.332
ACCGGACGUGCUUUCCGGUCUGAUGAGUCCGUGAGGAAGAAACAG [U7C C38A] | 0.702
ACCGGAUGUUCUUCCCGGUCUGAUGAGUCCGUGAGGACGAAACAG [G10U U14C] | 0.952

Variant | self-cleavage
ACCGGAUGUGCUUUCCGGCCUGAUGAGUCCGUGCGGACGAAACAG [U19C A34C] | 0.411
ACCGGAUGUGCUUUCCGGUCUGAGGAGUCCGUGACGACGAAACAG [U24G G35C] | 0.839
AGCGGAUGUGCUUUCCGGUCUGAUGAGUCCGUGAGGACGAAAUAG [C2G C43U] | 0.305
ACCGGAUGUACUUUCCGCUCUGAUGAGUCCGUGAGGACGAAACAG [G10A G18C] | 0.615
ACCGGAUGUGCUUUCCGCUCUGAUUAGUCCGUGAGGACGAAACAG [G18C G25U] | 0.284
ACCGGAUGUGCAUUCCAGUCUGAUGAGUCCGUGAGGACGAAACAG [U12A G17A] | 0.77
ACCGGAUGUGCUUGCCGGUCUGAUGAGUCCGUGUGGACGAAACAG [U14G A34U] | 0.782
ACCGAAUGUGCUUUCCGGUCUGAUGAGUACGUGAGGACGAAACAG [G5A C29A] | 0.445
ACCGGAGGUGCUUUACGGUCUGAUGAGUCCGUGAGGACGAAACAG [U7G C15A] | 0.89
ACCGGAUGUGCCUUCCGGUCUGAUGAGUCCGUGAUGACGAAACAG [U12C G35U] | 0.834
ACCGGAUGUACUUUCCGGUCCGAUGAGUCCGUGAGGACGAAACAG [G10A U21C] | 0.815
ACCGGAUGUGCGUUCCGGUCUGAUGAGUCCGUGAGGACGAAAAAG [U12G C43A] | 0.362
ACCGGAUGCGCUUUCCGGUCUGAUGAGUCCGUGAGGACGUAACAG [U9C A40U] | 0.406
ACCGGAUGUGCUUUCCGGUCUGAUGAGUCCGUGGGGACGAAACUG [A34G A44U] | 0.526
ACCAGAUGUGCUUUCCGGUCUGAGGAGUCCGUGAGGACGAAACAG [G4A U24G] | 0.546
ACCGGAUGUGCUUUCCGGUCUGAUGAGUCCGUUAGGACGACACAG [G33U A41C] | 0.375
ACCGGAUGUGCUUUCCGGUCUGAUGAGUCAGUGAGGACGAAAGAG [C30A C43G] | 0.386
AGCGGAUGUGCUUUCCGGUCUGAUGAGUCCGUGAGGACUAAACAG [C2G G39U] | 0.268
ACCAGAUGUGCUUUCCCGUCUGAUGAGUCCGUGAGGACGAAACAG [G4A G17C] | 0.399

Variant | self-cleavage
ACCGGAUGUACUUUCCGGUCUGAUGGGUCCGUGAGGACGAAACAG [G10A A26G] | 0.353
ACCGGAUGUGCUUUCCGGACUGAUGAGUCCGUGAGGAAGAAACAG [U19A C38A] | 0.313
AACGGAUGUGCUUUCCGGGCUGAUGAGUCCGUGAGGACGAAACAG [C2A U19G] | 0.381
ACCGGAUGUGCUUUACGGUCUGAUGAGGCCGUGAGGACGAAACAG [C15A U28G] | 0.378
ACCGGAUGUGCUUUCCGGUGUGAUGAGUCUGUGAGGACGAAACAG [C20G C30U] | 0.255
ACCGGAUGUGGUUUCCGGUCUGAUGAGUCCGUGAGGACGAAUCAG [C11G A42U] | 0.326
ACCGGAUGUGCUUUCCGGUCUGAUUAGUCCGUGAGGGCGAAACAG [G25U A37G] | 0.287
ACCGGAUGUGCUUUCCGGUCGGAUGAGUCCGUGAGGACGAUACAG [U21G A41U] | 0.333
ACCGGAUGUGCUUACCGGUCUGAUGAGUCCGUGAGGGCGAAACAG [U14A A37G] | 0.811
ACCGGAUGUGCCUUCCGGUCUGAUGAGUUCGUGAGGACGAAACAG [U12C C29U] | 0.912
ACGGGAUGUGCUUUCCGGUCUGAUGAGUCCGAGAGGACGAAACAG [C3G U32A] | 0.639
ACCGUAUGUGCUUUCCGGUCUGAUGAGUCCGUCAGGACGAAACAG [G5U G33C] | 0.813
ACCGGAUGUGCUAUCCGGUCUGAUGAGUCUGUGAGGACGAAACAG [U13A C30U] | 1.46
ACCGGAUGUGCUAUCCGGUCUGAUGAGUCGGUGAGGACGAAACAG [U13A C30G] | 0.947
ACCGGAUGUGCUUUCCGGUCUGAUGAGUCCUUGAGGACGAAACAU [G31U G45U] | 0.933
ACCGGAUGUGCUUUCCGGUAUGAUGAGUCCGUGAGGCCGAAACAG [C20A A37C] | 0.417
ACCGGAUGUGCUUUCCGGUCUGAUGAGUCGGUGAGGACGAAACAA [C30G G45A] | 0.403
ACCGGAUCUGCUUUCCGGUCUGAUCAGUCCGUGAGGACGAAACAG [G8C G25C] | 0.242
ACCGGAUGUGCUUUCCGGUCUGAUAAGUCCGUGAGGAGGAAACAG [G25A C38G] | 0.33

Source: the RNAGym collection of RNA variant scans (doi:10.7554/elife.80360)
